Assay results from patent US20100203559A1.

Columns and labels:
[1] = molecular target: SNAP-25134-206 peptide (human); assay: SPR (BIAcore 3000), peptide amine-coupled to CM5, antibody as analyte, 1:1 fit
[2] = molecular target: SNAP-25134-197 peptide (human); assay: as above
[3] = molecular target: syntaxin 2 (SiMa cell lysate) (human (SiMa cells)) (UniProt P32856); assay: ECL sandwich ELISA, SiMa lysate; capture MAB2936, detection AB5596; result of the pair
[4] = molecular target: syntaxin 2 (SiMa cell lysate) (human (SiMa cells)) (UniProt P32856); assay: ECL sandwich ELISA, SiMa lysate; capture MAB2936, detection S5687; result of the pair
[5] = molecular target: GAPDH (SiMa cell lysate) (human (SiMa cells)) (UniProt P04406); assay: ECL sandwich ELISA, SiMa lysate; capture G8795, detection 2275-PC-1; result of the pair
[6] = molecular target: GAPDH (SiMa cell lysate) (human (SiMa cells)) (UniProt P04406); assay: ECL sandwich ELISA, SiMa lysate; capture MAB374, detection G8795; result of the pair
[7] = molecular target: GAPDH (SiMa cell lysate) (human (SiMa cells)) (UniProt P04406); assay: ECL sandwich ELISA, SiMa lysate; capture MAB374, detection G9545; result of the pair
[8] = molecular target: GAPDH (SiMa cell lysate) (human (SiMa cells)) (UniProt P04406); assay: ECL sandwich ELISA, SiMa lysate; capture MAB374, detection 2275-PC-1; result of the pair
[9] = molecular target: syntaxin 1 (SiMa cell lysate) (human (SiMa cells)) (UniProt Q16623); assay: ECL sandwich ELISA, SiMa lysate; capture S0664, detection S1172-2; result of the pair
[10] = molecular target: syntaxin 1 (SiMa cell lysate) (human (SiMa cells)) (UniProt Q16623); assay: ECL sandwich ELISA, SiMa lysate; capture S0664, detection S1172-1; result of the pair

| Substance | Kd [1] [nM] | koff [1] [s⁻¹] | Kd [2] [nM] | koff [2] [s⁻¹] | kon [2] [M⁻¹ s⁻¹] | also measured |
| --- | --- | --- | --- | --- | --- | --- |
| MC-6053 α-SNAP-25 mouse monoclonal antibody (Research & Diagnostic Antibodies) | 240 | 2.56e-05 | 0.508 | 0.00118 | 2.32e+06 | – |
| α-human syntaxin 2 mouse monoclonal antibody MAB2936 (R & D Systems) | – | – | – | – | – | Signal/Noise Ratio (lysate/buffer) [3]: 1.2; Signal/Noise Ratio (lysate/buffer) [4]: 1.07 |
| α-GAPDH mouse monoclonal antibody G8795 (Sigma) | – | – | – | – | – | Signal/Noise Ratio (lysate/buffer) [5]: 2.74 |
| α-GAPDH mouse monoclonal antibody MAB374 (Chemicon) | – | – | – | – | – | Signal/Noise Ratio (lysate/buffer) [6]: 0.89; Signal/Noise Ratio (lysate/buffer) [7]: > 100; Signal/Noise Ratio (lysate/buffer) [8]: 20 |
| MC-6050 α-SNAP-25 mouse monoclonal antibody (Research & Diagnostic Antibodies) | 19800 | 0.00607 | 0.497 | 0.000882 | 1.78e+06 | kon [1]: 306 M⁻¹ s⁻¹ |
| α-Syntaxin 1A-HPC mouse monoclonal antibody S0664 (Sigma) | – | – | – | – | – | Signal/Noise Ratio (lysate/buffer) [9]: 1.21; Signal/Noise Ratio (lysate/buffer) [10]: 4.23 |
